# According to the DeepSol protein solubility set:
# Assay: soluble on expression in E. coli; label from the status in PepcDB or PDB records
row,Sequence,soluble on expression in E. coli
1,MALSLYEKMLHKGMIIKNSNVYEKIKEIDTIIFDKTGTLTYGTPIVTQFIGDSLSLAYAASVEALSSHPIAKAIVKYAKEQGVKILEVKDFKEISGIGVRGKISDKIIEVKKAENNNDIAVYINGEPIASFNISDVPRPNLKDYLEKLKNEGLKIIILSGDKEDKVKELSKELNIQEYYSNLSPEDKVRIIEKLKQNGNKVLMIGDGVNDAAALALADVSVAMGNGVDISKNVADIILVSNDIGTLLGLIKNRKRLSNAIPSN,soluble
2,MQPTLGAQAGSMLFRDASGRYCASLAGYRFLSAFQPIFYKGGSLFGHEALLRVVDEGGEWRPPDRFLASLAPGMALEADRLARLIHVRNFAQSGQGGCLCLNLMPATVQEDQSGRTHLPLLNSMLQSVELDSGGVIFELPEFDVEHHGQPLLQGMRHAADMGFGLAVDDFGALPARRDKMGELCPDIIKIDRSLLLDYMAGQTQRLPALLEFGWQIGSRMLVEGIETAEQLEAMRALGVELYQGYYLGRPGELPVLRQL,not soluble
3,MIKDQDAEFHVTDSDPTWAETNFFGFFNAEHKLNVGVYALFRPNLGVVSSTICMNSGRAVTPWEADFCDLRSAMPIPTPRSLLDYKLLNTLHVHCLDPNRVWHIGYDDQQGTRIDVRYEALMPAFDIHDPEMDPMCGSESEAGKFAWGTAYDGHFDQTGHFKGSVAIRGREVPIDCVSTMDHSWGARPERGKPNMSWLHAHFSKDLAVHGIFGFDQTRNGVELWLAHGYVMERGRIVGLKAGTGQVERPQERYPEQLQLQVTDAKDRVWKLRGRALTTFPWQCWPNMISFNSLCAWEMNGLKGHGEVQDFFELPQLNALNSVESTRRPSRPL,not soluble
4,VRPLNCIVAVSQNMGIGKNGDLPWPPLRNEFKYFQRMTTTSSVEGKQNLVIMGRKTWFSIPEKNRPLKDRINIVLSRELKEPPRGAHFLAKSLDDALRLIEQPELASKVDMVWIVGGSSVYQEAMNQPGHLRLFVTRIMQEFESDTFFPEIDLGKYKLLPEYPGVLSEVQEEKGIKYKFEVYEKKD,soluble
5,MVENIPLAEEEHNKWHQDAVSLHLEFGIPRTAAEDIVQQCDVCQENKMPSTLRGSNKRGIDHWQVDYTHYEDKIILVWVETNSGLIYAERVKGETGQEFRVQTMKWYAMFAPKSLQSDNGPAFVAESTQLLMKYLGIEHTTGIPWNPQSQALVERTHQTLKNTLEKLIPMFNAFESALAGTLITLNIKRKGGLGTSPMDIFIFNKEQQRIQQQSKSKQE,soluble
6,MGLTAMGLTTMGLTTVGLATMGATTKISQQHFFKFSRSDPIVLLQYSYSTTTVPRPYPTNNSKPISLQKTKTQFFLNYSNPTVLLQYLYSTTTVPRPYPTTNPKLISLQQPKTPFLSPRIRLVLREHERCRGALSDVWVAGAARGAVRCAKLYNKTRHVIRKISANKRKLFPLFYCYTYIHTYKNQVSPEKNANQKGKRMFPRFMVGVALIFELNNYDIETSCSHSSSSFSARLSSADYEVYWARALQILHVGGVEIDEFGGG,not soluble
7,MEKKYRKEPVEIPPEIAETAAGGKVPETDVTEQYPQMEEMNGTEAAGEMPQIGPMYPIPQVPAQPTEPAQQMGQMPCMQPIPQMVPVVCCPFLLQMHCPMMPMDYSSMSHPTYQTAPQAMPQTMQAVPQPATPAQYAPGPCGSPYYPQHSGSPCGYGSDMYDQNYNSSMYNPSMYNPMRPGYY,not soluble
8,GPGSMNPYYAAPPPPPQQQQSRPSVDLDDLFGGPTAANEHKPFHAAPGEPAPPSYDALNGGYSSAPPPAHHAAASEPQQSHNGNISGNQSLYYGAAHQQQQQQQSYGVPAAVPASASPYGMSSPPPAFSSSSSITPGTAPPLQPQPQQQQYGAYPAMPASGMAPPAPPLQQQPPQVYVQPQPQPQPMPGPVHQQQQSFAQNSSSSVSPSGAAAVAGPTAAAGVGSGAASSRSAEEEDRLQLERIIRLRRELELEQEREQRKKEELQTWGCPICTFRNKLNEVKCEMCGSTRPGYTAPASTEPPAQHQQQQHQPRPAATPSQVNAGVTDWQCGMCLAPNEAHAERCKVCYAYRSSGIPVPTASPSGAAANANHNGVVSNTPFTTNWKCSVCGEVNPPSKANCKVCSGFQRNGTAVTDAVPAPSTGSGHGAQATSSADPPLPTVWSCSVCTFENSVSAAVCKACESGQRPRHLAPKRDKEKSASSKQHDSRGSGAKDGGGDGEKKCSSSKSQWPCGTCTFLNPIGRKKCDMCGAKRPESYAAEADTTEARAAAKQEAQDDAEEVAWQDDDSVTECNNCHTTFTFLIRRHHCRLCGYVFCAHCSSYSVPLTMGSLPQRVCVNCYKARLEEEKKTKKARRWLDS,soluble
9,MGSDKIHHHHHHMKKIVVLGGGPGGLVAAYNLARLLRGKAEITLIDKTGYHLFPPSLLWVMVGQREPEDIMRPLSKLEKHGIKVVTASVESIDPDNNKVATSGGEFEYDYLVVSLGSTPRPELMKADDTVCSPWTVEGALDCRRKLAGFKSGRIIVGAWSWPYKCPPAPFETAFLVKYLLEQRGGDAQVTVVHFWKKPMEPFGPTMAEAFQSFLDMYGVGFKGGVEPMEARGGRLVASSGEEIEYDLAVFAPPHEPPKPVAESPLGDESLGGYMRVDKRTLRSPRYGNVFGVGDIIAPSLGLGMAGIFAHFQAEYVASQIADEILGTYMGEHYNMSGVCVMDLGYAGAAVYCDFSKKVMGEAEYPDCVILGGMRAFRPLKYAFERYWLEKWFT,not soluble
10,MGHHHHHHSHDQLDRAGVAAVALSGGEPTIHPHFLRIVKELSSRGIHTSVATNGWTFADKEKLEEAVKAGLKYVEISVDSAKPEKHDEFRGIPGAWERAIKALENAVEIGVSHGMAVIMDKETYQEMDDILDLAESIGVKRVIFFNLVPTGRAEDMVKVDLTPEEREEFLKELYHQMKKRKLEILTTAPQYARVTLIESQGKNVSPAHFYVGQNTAVKTLAEFIGGCGAGRIYAGIEPDGTVVPCVFL,not soluble
11,MSLIESVMTVLVTRPDEQGAELCQLLHQQGIPALHHPLLAISASPQLAALAEDLSSFDIIIAVSQHAVIFSDQFLQHRRICWPNNAIYLAVGQKTAHVFSKACQQSVDYPEISDSEHLLALSMLRDVAGKKVLILRGNGGRELIYSTLVERGATVRYQEAYCRHERPFAAAECVQKWQLAKVDSLVITSSEQLAFFIRQFETSHLPWVQQLTLLVPSQRIATLAHQLGFHRIVVTLSAANRDLVAALMPEKPTGTLSNDQQQEGHHHHHH,soluble
12,GPGSMSYSGRKLKYFVEDSDGWLRRNQQVAEQFVMAEDDRETKEMLSLLAPRAHFASFWGVVRGLPAAVALQAQEREHLRITWTSGLQPLTSRTFARNGYVHVLDRERMSFIPVLGPWLSSFFQRPVQELLVVREGRVVFRGMGYVWDIGKH,not soluble
13,VYWLNWTDRTRKFTIYNDIIERSLLTLKMMSFYNGAVLASLTTSLPEAVGEVRNWDYRFCWLRDASMSIETLFKIGHADATRKFMKFIQSTFVAEHDTYQIMYGIRGERKLTEVILDHLSGYKNSQPVRIGNDAYHQRQNDSFGYLMDLIYQYYRLMPGTLDEIEDMWEMVKSIMTTVMEDWRKPDKGIWEIRGEGQHFVSSKVMCWVALDRGARIARILNKYENSRRWEEEADAIKADVMRNGWKEEIQSFSQAYGNLDLDSSLLLMEPYGFIDADDIRYHKTVKAVKQSLLHKGLMYRYNTHDDFGCPSSAFTICTFWLIRALYVIGEKDEARCLFDEILQYSNHLGLFSEDIDFETKEQLGNFPQAYSHLALVNTAVLFAE,not soluble
14,MDSENAVKTTYGEFNGKKPFAVMLLGTDTGALDRTEKRGNTDTIIVVVVNPKKKNYTMISIPRDTMADMVGDDSNDVQKINAAYSIGGAKMAMKTVSNLLNIPVKYYALVNMGGLMKLVDYVGGIYVTPPLTFTYSGFPFKKRVRQHLNGQAALAYSRMRYDDPQGDYGRQKRQREVITKLVQKLATADSLTNFSKIANNLSSNVKTNLSFQALKSILANYSDCTSSSDSDYLHGYSTYVNDAAYQIAPTSELQRISNKIRKLLGLKTATVSNRETELNTLNETAGFKFGSGETQNYTLEHHHHHH,soluble
